Test: label from the status in PepcDB records

| Sequence | protein production |
| --- | --- |
| MKHTIGILGGMGPAATADMLEKFVELRHASCDQQHIPLIVSSIPDIPDRTACLLSGGPSPYRYLERYLHMLEDAGAECIVIPCNTAHYWFDDLQNVAKARMISILDATLGDIPPSARHVGLLATNATLATGLYQKKALARGLTLIQPEDAGQALVMQAIYTLKRGDKTAAQALLLPQIDSLIARGAQAIIMGCTEIPLIVAGHERAIACPMIDSTASLVRAAIRWYESWPDTRASLTGEQRLTA | not failed |
| MTARYIAIDWGSTNLRAWLYQGEECLESRQSEAGVTRLNGRSPAAVLAEITQHWRDGATPVVMAGMVGSNVGWKIAPYLPLPAAFSDIGQQLTAVGDNIWIIPGLCVSRDDNHNVMRGEETQLLGARALAPSSVYVMPGTHCKWVLADRRQIHDFRTVLTGELHHLLLQLSLVGAGLPPQETSAAAFAAGLQRGINNPAVLPQLFEVRASHVLGALPREQVSEFLSGLLIGAEVATLSDTFAGQQAISLVAGSSLTSRYQQAFAAIGREVSAVAGDTAFQTGIRSIAYAVAN | not failed |
| PFMDQSGGGVTFCGGEPLLHPEFLIDILKRCGQQGIHRAVDTTLLARKETVDEVMRNCELLLIDLKSMDSTVHQTFCDVPNELILKNIRRVAEADFPYYIRIPLIEGVNADEKNIKLSAEFLASLPRHPEIINLLPYHDIGKGKHAKLGSIYNPKGYKMQTPSEEVQQQCIQILTDYGLKATIGG | not failed |
| MSLREVALKILIVEDDTDAREWLSTIISNHFPEVWSAGDGEEGERLFGLHAPDVIITDIRMPKLGGLEMLDRIKAGGAKPYVIVISAFSEMKYFIKAIELGVHLFLPKPIEPGRLMETLEDFRHIKLAKEGHHHHHH | not failed |
| MPVPPEFPLSVFYDGSCSVCATEMEAYMRKEHGGRLLFVDISAPSFDPTPYGITLDAFMYQMHAIDRTGRVYLSVEAFWAIWQAFPASTLYGFLGALVMLPGVNLLARAGYRGFARIRKYLPRRRETCAGGSCRIGQREE | failed |
| MCTIFKVNGKIHIKELISSIVIAEGVGALSGFLSMSNVKNYSNLKKPFFSPPGFIFPIVWVILYFLMAVAAYRIWVIGKEESKDVKKALVLYAVQLLFNFLWSIIFFKFNCYGAAFIELLILLFFILCATFQFHKHDKVAAFLMIPYILWVSFAGILNFAIWFLNRNSST | failed |
| MGMTRNLLAAGLAAVLALPALAAELVMVEQHGCEWCARWNEEIAPIYPKTAEGAFAPLRRVDLRAIPADLETARRVVFTPTFLIVEDGRELARLEGYPGEDFFWPLLEQLLVDHAGFVPKKPGSS | failed |
| MAGSVADSDAVVKLDDGHLNNSLSSPVQADVYFPRLIVPFCGHIKGGMRPGKKVLVMGIVDLNPESFAISLTCGDSEDPPADVAIELKAVFTDRQLLRNSCISGERGEEQSAIPYFPFIPDQPFRVEILCEHPRFRVFVDGHQLFDFYHRIQTLSAIDTIKINGDLQITKLG | failed |
| MRQIGNRRVAPLAILAAVLMGGPTNASTGEFKVAYLYNLSDFTGTIPYSLAKIALDATARETYVISGETVKVFNNSGMEVYRFTNTMESGIVYDAAIDEQGRILVLAYNNGTPSLLLCNYRAEPIKPIEFKGLPEKLAAFKPNRLMLRDGKICLVSLGSMMVVMLDPEGNYVKHIDLAEASSVTEEDRLNTGIGAVAFDSDGSVLFTSPVTGKVFRISANGTVESFGKRGSAPGKFGVPTGIAVDGLGNYYISDKLRCAILVFDRQFKFIYEFGGRGDAPGSLVGPDDLAIDAEGKLYVGQLGNRGVSVFKVTHD | failed |
| MADFLLELRSEEIPAGLQKMAVEKLAELLSAKLKEAGINPTKIEKYATPRRIALLMRDLPAKTEAVQEERRGPRADAPEKALAGFLRSTGLTKEELELRETPKGNFYYAHIEKPGQTLIALLGEAIPAIIKTFPWPKSMRWGNFSASSESLRWVRPLKGIVALIDEQLIPIELDGITSGTETKGHPFHHPDVVTLAKASDYPEKMAAAHVMIDFDARVQKITDEARKAAQKAGLTLIEDAALAQENAGLTEWPVPLLGRFDEAYLAVPREVIQLTMRTNQKYFACTDRNQDLAAVFICVADMEAQDGGKEITQGNEKVLSARLADARFFWEQDLKIPLEDWLPRLDSVLFYEGMGSVGDKAKRIAHLSGYIADQIGADRKQAERAGLLAKADLASNMVGEFPELQGVMGGYYAKAGNEAPDVVSAVSGQYQAEAGAGVAAAVSLADRIDSLACFFVRNIRPTGSKDPFALRRAAVQIIQTIIAHQLRLPLTPLFEKAGAGDQIESLLAFITERLKVQQREAGIRYDLIDAVLALGYEDDVIRLLARVQALQSFIESEDGSDLLAGYRRAVNILKGSEASEKGDISQEDIEQPEQDLQKALQAIEAPLEQALKAEDYAAAMTALASLRQPIDQFFDKVIVNHDKAGIRSRRLALLEQIRTAMHQVADFSVVEALTIEASGRKR | failed |
| MINMTRKLYYEDAYLKEAKGRVLEIRDNAILLDQTIFYPTGGGQPHDRGTINGVEVLDVYKDEEGNVWHVVKEPEKFKVGDEVELKIDWDYRYKLMRIHTGLHLLEHVLNEVLGEGNWQLVGSGMSVEKGRYDIAYPENLNKYKEQIISLFNKYVDEGGEVKIWWEGDRRYTQIRDFEVIPCGGTHVKDIKEIGHIKKLKRSSIGRGKQRLEMWLE | not failed |
| MSDSDAMTDPNAVSYSNAIVVLCTAPDEASAQNLAAQVLGEKLAACVTLLPGATSLYYWEGKLEQEYEVQLLFKSNTDHQQALLTYIKQHHPYQTPELLVLPVRDGDKDYLSWLNASLL | failed |
| MAKYDVLTIGNAIVDIIARCDDSFLEENGIIKGAMNLINADRAELLYSRMGPAVEASGGSAGNTAAGVASLGGRAAYFGKVADDQLGEIFTHDIRAQGVHFQTKPLDGHPPTARSMIFVTEDGERSMNTYLGACVELGPEDVEDDVVAQSKVTYFEGYLWDPPRAKDAIREAARIAHAHGRETAMTLSDSFCVHRYRSEFLELMRSGTVDIVFANRQEALALYETEDFDRALELLARDCKLAAVTLSEEGSVVVRGAERVRVGASVLEQVVDTTGAGDLYAAGFLFGYTSGRSLEECSKLGNLAAGIVIGQIGPRPLVSLATAARQAALV | not failed |
| MWSYDKITDYLMNNLGEKRYKHSLGVMDTAVRLAGIYNEDTEKARIAGLVHDCAKKLPGEKIIEICTNEGYELGDEDIRNSYLLHGLAGRILAKKVIGIDDEDVLNAIEFHTTGRPNMSLLEKIIYIADYIEPGREFKGVDELRKAADEDLNKALLMSFDNTIKFVIDKGGFLHHNTIEARNYLISRKG | not failed |
| MSDAAEIRMDAGALNAFLHRAFPEVDPEQMPQVLEVEAGRALLKLPYASRQLRPGGVISGPTMMSLADTAAYAMILARIGEVALSVTTSLNIHFLRGCKPGDLYAEATLLKLGRRIATVDVLMWTQGRERAAAKATVAYAIP | failed |
| MGHHHHHHSHVAKVSQREEMVKKCLGELTEVCKSLGKVFGVHYFNIFNTVTLKKLAESLSSDPEVLLQIDGVTEDKL | failed |
| MNLPCQWPRSQQADKHGRFPINRDQRRAAGAGTRSGAGGQPPLGLDQYVQQALQLHQAGRRQEAESIYRQVLARQPKHAAAAHFLGLLLHQTGRSEEGLDLIERSVSLQPTNADFLNNFGTVMRDLGRVAAAIDFFRGAVDLRPEQLAARDNLGSSLKQLGRFEEAEDIYRGTVARNPFHVRARIGLAETLQEAGRLDEALAVFRESLTIRPKDADLLHGLGVGMMEKGKLDEAADLFRQALAVNPGMATAWLMLTQVKRQKERDAELAGMEAQHAKAPQDSLARMQLSFGLGKANDDLKDYNRAFDYFAEGNAIRRKGIDYDPVRTREEFAAMKTVFDAGFFERHRPSPISDDAPIFVVGMPRSGTTLVEQIIASHPQVYGAGELSILKKAVGKQFPTTMPGGFPWGVADTDDADFAEAGQAYLDMLHARYPHLSHVTDKMPGNFLLVGFIHMMMPKAKIIHCTRDAAATCLSIYKVHFRGDSHRYGYDLGELADFHNLYTDIMAHWHKVLPGVVHDVRYEDFVADQEGQSRALIDYLGLPWDDAVLSFHATDRPVRTASAAQVRQPMYQGSVDLWKRYGDRLKPLLDKLD | failed |

From a protein production outcome set (Wang et al. 2014)
